Usually koff stands for the first-order rate constant of dissociation. A higher koff goes with a short-lived complex. What is called kon is the second-order rate constant of association. In general, Kd refers to the free concentration of one partner at which half of the binding sites on the other are occupied at equilibrium, for simple one-to-one binding. The low end stands for higher affinity, the high end for lower affinity.

The target in test [1] is T1, serum purified human Complement Factor D (human, UniProt P00746 26-253).
T1 construct: Serum purified protein flowed over the captured antibodies; also called CFD; human CFD
Put plainly: SPR Biacore, antibody on protein A chip, single cycle kinetics, 25 C. (In general: In SPR one partner is held on a chip, and binding of the other changes the refractive index at the surface.)
Procedure: (§1) Antibodies were diluted to 0.5 ug/ml in HBS-EP+ buffer and captured on a protein A chip for 25 seconds to reach approximately 70 resonance units. […] Binding kinetic information was obtained by the BIAevaluation software (GE).

Test [2] has as its target T1, serum purified human Complement Factor D. Briefly: SPR Biacore, antibody on protein A chip, single cycle kinetics, 37 C.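 Further: antibodies captured on the protein A surface to roughly 70 RU in HBS-EP+ buffer, with rate and affinity constants fitted using BIAevaluation software.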
Procedure: as §1
Test [3] shares this target. Put plainly: SPR Biacore, antibody on protein A chip, single cycle kinetics, 25 C; earlier run in the table (r34, Rmax 14.8).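 Further: antibodies captured to roughly 70 RU on the protein A surface in HBS-EP+ running buffer, with kinetic constants derived by BIAevaluation fitting.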
Procedure: as §1
For test [4] the target is unchanged. Briefly: SPR Biacore, antibody on protein A chip, single cycle kinetics, 37 C; earlier run in the table (r34, Rmax 17.1).
Procedure: as §1
Test [5] deals with human Complement Factor D (CFD), purified from human serum (human, UniProt P00746 26-253). Put plainly: cell-based or functional assay.
In a further test the target is T2, purified human C1q (human, UniProt P02745 23-245; P02746 28-253; P02747 29-245).
T2 construct: also called Complement C1q
Briefly: ELISA, antibody coated in a 1:2 titration from 10 ug/mL, purified human C1q at 5 ug/mL, HRP anti-human C1q.

In another test the target is Histidine-tagged FcγRI (UniProt P12314 16-288, limits assumed). Put plainly: SPR (Biacore T200, 25 C), His-tagged FcγRI captured on anti-His CM5 chip, antibody injected, single cycle kinetics.
Test [6] has as its target Histidine-tagged FcγRIIIa (UniProt P08637 17-208, limits assumed). Briefly: SPR (Biacore T200, 25 C), His-tagged FcγRIIIa captured on anti-His CM5 chip, antibody injected, single cycle kinetics.
Procedure: For Fcγ receptor Binding Kinetics on Biacore, all binding kinetics were performed at 25° C. using a BIAcore T200. Briefly, an anti-his antibody was immobilized on a CM5 chip. Histidine-tagged FcγRI (FIG. 15A and FIG. 15B) and FcγRIIIa (FIG. 16A and FIG. 16B) at a concentration of 0.5 μg/mL prepared in HBS-EP buffer (0.01M HEPES pH7.4, 0.15M NaCl, 3 mM EDTA, 0.005% Tween-20) were injected independently for 60-s using a flow rate of 5 μL/min in the active flow cell only. […] Following each run, flow cells were regenerated with a 60 s injection of 10 mM glycine pH 1.7 using a flow-rate of 50μ/mL. Data was double referenced, using subtraction of both reference flow cell and blank cycles. Analysis was performed using BIA evaluation software.

Several values for one entry are separate records, joined by “and”; a condition that tells them apart may be missing. Identical values can stand only once.

T1 sequence (P00746 26-253): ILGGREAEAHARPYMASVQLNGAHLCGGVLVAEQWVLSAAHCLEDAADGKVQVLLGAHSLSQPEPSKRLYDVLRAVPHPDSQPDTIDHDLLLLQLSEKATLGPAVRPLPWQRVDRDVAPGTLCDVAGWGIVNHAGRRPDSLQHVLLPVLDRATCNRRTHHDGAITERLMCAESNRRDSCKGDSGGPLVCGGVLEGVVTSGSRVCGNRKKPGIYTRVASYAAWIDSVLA
Chain of human Complement Factor D (CFD), purified from human serum (P00746 26-253): as above
Chain of Histidine-tagged FcγRI (P12314 16-288 limits assumed): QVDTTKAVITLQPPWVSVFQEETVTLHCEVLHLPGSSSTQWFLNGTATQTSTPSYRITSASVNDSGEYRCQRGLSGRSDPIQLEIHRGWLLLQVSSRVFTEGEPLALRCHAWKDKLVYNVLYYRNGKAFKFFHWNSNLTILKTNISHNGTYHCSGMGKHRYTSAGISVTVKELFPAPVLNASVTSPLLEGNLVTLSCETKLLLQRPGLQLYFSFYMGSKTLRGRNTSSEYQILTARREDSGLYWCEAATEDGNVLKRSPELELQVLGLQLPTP
T2 sequence (P02745 23-245 limits assumed, chain 1 of 3): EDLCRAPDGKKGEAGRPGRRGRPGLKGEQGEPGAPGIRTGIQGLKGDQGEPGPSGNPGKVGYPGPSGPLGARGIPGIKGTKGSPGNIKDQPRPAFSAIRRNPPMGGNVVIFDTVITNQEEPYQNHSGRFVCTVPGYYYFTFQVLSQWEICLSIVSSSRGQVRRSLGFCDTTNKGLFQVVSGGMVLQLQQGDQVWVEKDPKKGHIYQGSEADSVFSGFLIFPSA
T2 sequence (P02746 28-253 limits assumed, chain 2 of 3): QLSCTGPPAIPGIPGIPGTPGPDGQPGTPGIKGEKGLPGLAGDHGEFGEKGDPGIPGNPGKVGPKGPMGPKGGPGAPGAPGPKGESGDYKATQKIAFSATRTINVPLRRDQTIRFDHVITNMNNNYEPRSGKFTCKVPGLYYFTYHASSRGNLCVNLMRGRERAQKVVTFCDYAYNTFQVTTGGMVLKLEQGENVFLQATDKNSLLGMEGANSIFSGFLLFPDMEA
T2 sequence (P02747 29-245 limits assumed, chain 3 of 3): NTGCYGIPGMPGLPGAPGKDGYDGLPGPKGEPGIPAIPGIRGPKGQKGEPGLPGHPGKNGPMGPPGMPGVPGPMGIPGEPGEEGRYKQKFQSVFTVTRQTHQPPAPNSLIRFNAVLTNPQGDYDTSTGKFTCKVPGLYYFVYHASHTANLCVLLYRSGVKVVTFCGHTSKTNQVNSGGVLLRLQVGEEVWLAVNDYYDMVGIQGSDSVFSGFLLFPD
Chain of Histidine-tagged FcγRIIIa (P08637 17-208 limits assumed): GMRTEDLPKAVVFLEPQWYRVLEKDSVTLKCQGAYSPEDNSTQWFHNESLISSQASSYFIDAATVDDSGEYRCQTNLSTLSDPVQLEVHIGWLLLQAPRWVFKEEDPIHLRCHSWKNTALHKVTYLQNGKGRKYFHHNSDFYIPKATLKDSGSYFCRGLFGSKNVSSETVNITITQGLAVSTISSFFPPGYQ
Procedure for purified human C1q: Complement engagement liabilities was assessed by C1q ELISA binding. Briefly, antibody panel was titrated 1:2 from a top concentration of 10 ug/mL in 1×PBS for overnight coating at 4 C. Plates were then blocked After a 2 hour blocking step in 1% BSA, purified human C1q was then applied at 5 ug/mL in 1% BSA for 2 hours at room temperature followed by detection with HRP-conjugated anti-human C1q antibody and TMB development.

B1: 54I59D / 54G101V (antibody, V domains shown)
VH: EVQLVESGGGLVQPGGSLRLSCAASGYTFTDYYMNWVRQAPGKGLEWIGDINPITGDTDYNADFKRRFTFSLDTSKSTAYLQMNSLRAEDTAVYYCTREGPSFAYWGQGTLVTVSS
VL: DIQLTQSPSSLSASVGDRVTITCRSSQTIVHSNGDTYLEWYQQKPGKAPNLLIGKVSNRFSGVPSRFSGSGSGTDFTLTISSLQPEDFATYYCFQGSHVPVTFGQGTKVEIK
notes: KCD119 TAF variant; full antibody captured on protein A; also called 54I59D / 4G101V 5
With B1, in test [1], the dissociation rate constant (koff) is 9.56e-05 s⁻¹. For the same molecule, the association rate constant (kon) in test [1] is 1.15e+07 M⁻¹ s⁻¹ and 5.91e+06 M⁻¹ s⁻¹; in test [2], 2.78e+07 M⁻¹ s⁻¹ and 1.36e+07 M⁻¹ s⁻¹. Also, the Kd worked out at 0.00833 nM in test [3] and 0.00774 nM in test [4].

B2: OG1965 (antibody, IgG1)
heavy: EVQLVESGGGLVQPGGSLRLSCAASGYTFTDYYINWVRQAPGKGLEWIGDINPITGDTDYNADFKRRFTFSLDTSKSTAYLQMSSLRAEDTAVYYCTREGPSFAYWGQGTLVTVSSASTKGPSVFPLAPSSKSTSGGTAALGCLVKDYFPEPVTVSWNSGALTSGVHTFPAVLQSSGLYSLSSVVTVPSSSLGTQTYICNVNHKPSNTKVDKKVEPKSCDKTHTCPPCPAPEAAGAPSVFLFPPKPKDTLMISRTPEVTCVVVDVSHEDPEVKFNWYVDGVEVHNAKTKPREEQYNSTYRVVSVLTVLHQDWLNGKEYKCKVSNKALPAPIEKTISKAKGQPREPQVYTLPPSREEMTKNQVSLTCLVKGFYPSDIAVEWESNGQPENNYKTTPPVLDSDGSFFLYSKLTVDKSRWQQGNVFSCSVMHEALHNHYTQKSLSCSPGK
light: DIQLTQSPSSLSASVGDRVTITCRSSQTIVHSNGDTYLEWYQQKPGKAPNLLIRKVSNRFSGVPSRFSGSGSGTDFTLTISSLQPEDFATYYCFQGSHVPVTFGQGTKVEIKRTVAAPSVFIFPPSDEQLKSGTASVVCLLNNFYPREAKVQWKVDNALQSGNSQESVTEQDSKDSTYSLSSTLTLSKADYEKHKVYACEVTHQGLSSPVTKSFNRGEC
notes: humanized IgG1 kappa with L234A, L235A, G237A and L443C (EU); also called 34I54I59D84S/54R101V; 34I54I59D84S (heavy) / 54R101V (light)
Turning to B2, in test [5], the “EC50, block of C3bB cleavage (Bb ELISA)” value was 1.9 nM. Further, the “EC50, block of Factor B cleavage (western blot)” value in test [5] came out at 7 nM. The binding result with purified human C1q is listed as “no binding (tested: 10 ug/mL)”; in the test with Histidine-tagged FcγRI, “no binding”; in test [6] it was “no binding”.

The values above are taken from US20180334496A1 (KODIAK SCIENCES, published 2018).
